Test results as given in patent US20240052045A1 (VIB VZW, published 2024).

Legend:
human CCR8 [1] = biological target: T1, human CCR8 (human, UniProt P51685 1-355); assay: competitive binding, flow cytometry
T1 construct: Expressed on HEK293, HEK293T or CHO-K1 cells, stably or transiently transfected; also called hCCR8

murine CCR8 [2] = biological target: T2, murine CCR8 (mouse, UniProt P56484 1-353); assay: flow cytometry on cells transfected with mouse CCR8
T2 construct: Transiently expressed on HEK293/HEK293T cells or endogenously expressed on BW5147 cells; also called mouse CCR8; mCCR8
T2 sequence: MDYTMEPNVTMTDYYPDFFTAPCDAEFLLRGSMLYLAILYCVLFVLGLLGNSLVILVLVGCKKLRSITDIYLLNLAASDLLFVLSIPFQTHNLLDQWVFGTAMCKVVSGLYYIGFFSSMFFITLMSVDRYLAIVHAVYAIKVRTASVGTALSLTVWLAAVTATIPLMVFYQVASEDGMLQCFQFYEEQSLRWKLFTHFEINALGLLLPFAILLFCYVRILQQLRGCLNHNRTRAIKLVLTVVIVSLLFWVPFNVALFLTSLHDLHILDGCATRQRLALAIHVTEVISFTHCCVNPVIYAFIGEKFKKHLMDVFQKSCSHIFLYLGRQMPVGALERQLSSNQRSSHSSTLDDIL

human CCR8 [3] = biological target: T1, human CCR8; assay: flow cytometry competition with parental VHH-64
From the text: (§1) Multiple His6 tagged VHH variants were thus generated and evaluated by flow cytometry for their ability to compete for binding to hCCR8 with their FLAG3-His6 tagged parental counterpart (VHH-57, VHH-64 or VHH-67).

human CCR8 [4] = biological target: T1, human CCR8; assay: flow cytometry competition with parental VHH-67
From the text: as §1

murine CCR8 [5] = biological target: T2, murine CCR8; assay: flow cytometry on HEK293T cells transiently transfected with mouse CCR8
human CCR8 [6] = biological target: T1, human CCR8; assay: flow cytometry on HEK293 cells with hCCR8 and chimeric/deleted variants
human CCR8 [7] = biological target: T1, human CCR8; assay: flow cytometry competition with parental VHH-57
From the text: as §1

T1 sequence (P51685 whole entry): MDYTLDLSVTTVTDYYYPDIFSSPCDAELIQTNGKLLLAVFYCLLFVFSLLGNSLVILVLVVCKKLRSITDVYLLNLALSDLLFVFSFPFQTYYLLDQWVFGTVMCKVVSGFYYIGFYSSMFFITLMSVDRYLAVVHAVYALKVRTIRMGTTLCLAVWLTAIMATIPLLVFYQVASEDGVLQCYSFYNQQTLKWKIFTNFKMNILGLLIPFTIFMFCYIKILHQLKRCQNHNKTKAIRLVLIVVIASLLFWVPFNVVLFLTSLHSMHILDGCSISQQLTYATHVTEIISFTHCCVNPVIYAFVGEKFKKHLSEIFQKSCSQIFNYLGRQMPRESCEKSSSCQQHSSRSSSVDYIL

B1: VHH-64 (VHH)
VHH: EVQLVESGGGLVQPGGSLRLSCAVSGGIRSIIPAGWYRQVPGKQRELVAAISTAGSADYADSVKGRFTISRDNTKNTAYLQMNSLRPEDTAVYYCNGRQTGWRTRVDYWGQGTLVTVSS
notes: Monovalent VHH purified from E. coli periplasm with C-terminal FLAG3 and His6 tags; not shown: C-terminal FLAG3 and His6 tags
B1: binds (human CCR8 [1]); binds (murine CCR8 [2]).

B2: VHH-84 (VHH)
VHH: DVQLVESGGGLVQPGGSLRLSCAVSGGIRSIIPAGWYRQAPGKQRELVAAISTAGSADYADSVKGRFTISRDNAKNTVYLQMNSLRPEDTAVYYCNGRQTGWRTRVDYWGQGTLVTVSS
notes: also called VHH-64 with mutations E1D, V40A, T74A, A78V; not shown: C-terminal His6 tag (no FLAG3)
B2: binds (human CCR8 [3]).

B3: VHH-120 (VHH)
VHH: DVQLVESGGGLVQPGGSLRLSCTVSGSIFSLRTVGWYRQAPGKQRELVATISAGGATDYADSVKGRFTISRDNAKNTVYLQMNSLRPEDTAVYYCYAQDSYKIYKSRYTQDYWGQGTLVTVSS
notes: also called VHH-67 with mutations E1D, V65G, V69I, G74A; not shown: C-terminal His6 tag (no FLAG3)
B3: binds (human CCR8 [4]).

B4: VHH-67 (VHH)
VHH: EVQLVESGGGLVQPGGSLRLSCTVSGSIFSLRTVGWYRQAPGKQRELVATISAGGATDYADSVKVRFTVSRDNGKNTVYLQMNSLRPEDTAVYYCYAQDSYKIYKSRYTQDYWGQGTLVTVSS
notes: as for B1
B4: binds (murine CCR8 [5]); binds (human CCR8 [6]).

B5: VHH-122 (VHH)
VHH: DVQLVESGGGLVQPGGSLRLSCTVSGSIFSLRTVGWYRQAPGKQRELVATISAGGATDYADSVKGRFTISRDNAKNTVYLQMNSLRPEDTAVYYCYAQDTYKIYKSRYTQDYWGQGTLVTVSS
notes: also called VHH-67 with E1D, V65G, V69I, G74A, S100T; not shown: C-terminal His6 tag (no FLAG3)
B5: binds (human CCR8 [4]).

B6: VHH-121 (VHH)
VHH: DVQLVESGGGLVQPGGSLRLSCTVSGSIFSLRTVGWYRQAPGKQRELVATISAGGATDYADSVKGRFTISRDNAKNTVYLQMNSLRPEDTAVYYCYAQQSYKIYKSRYTQDYWGQGTLVTVSS
notes: also called VHH-67 with E1D, V65G, V69I, G74A, D99Q; not shown: C-terminal His6 tag (no FLAG3)
B6: binds (human CCR8 [4]).

B7: VHH-57 (VHH)
VHH: EVQLVESGGGLVQPGGSLRLSCTASGNIFSLLDMKWYRQAPGKQRELVADITSGGSTNYADPVKGRFTISRDNAKNTVYLQMNSLRPEDTAVYYCNAAPYYWGAYRRQESWGQGTLVTVSS
notes: as for B1
B7: binds (murine CCR8 [5]); binds (human CCR8 [6]).

B8: VHH-119 (VHH)
VHH: DVQLVESGGGLVQPGGSLRLSCTASGSIFSLLDMKWYRQAPGKQRELVADITSGGSTNYADSVKGRFTISRDNAKNTVYLQMNSLRPEDTAVYYCNAAPYYWGAYRRQESWGQGTLVTVSS
notes: also called VHH-57 with mutations E1D, N27S, P62S; not shown: C-terminal His6 tag (no FLAG3)
B8: binds (human CCR8 [7]).
